Reference: patent US20220112244A1 (DOMPE FARMACEUTICI S P A, published 2022)

T1: mouse IL-17A (mouse, UniProt Q62386 26-158)
T1 construct: also called mIL-17 Å; mIL17
T1 sequence (looked up): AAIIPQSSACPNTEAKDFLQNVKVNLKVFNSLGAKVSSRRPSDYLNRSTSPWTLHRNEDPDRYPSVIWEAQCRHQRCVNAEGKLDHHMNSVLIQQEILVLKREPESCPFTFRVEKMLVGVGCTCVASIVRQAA


Columns and labels:
[1] = biological target: T2, IL-17A (agonist in the IL-17RA/IL17RC dimerization assay) (UniProt Q16552 24-155); experiment: cell-based or functional assay
[2] = biological target: T2, IL-17A (agonist in the IL-17RA/IL17RC …); experiment: cell-based or functional assay; remark: listed apart in the source
mouse IL-17A [3] = biological target: T1, mouse IL-17A; experiment: SPR, mouse IL-17A amine-coupled to the chip (3000 RU), peptide 62.5-1000 nM as analyte, Scatchard analysis of RU at equilibrium
mouse IL-17A [4] = biological target: T1, mouse IL-17A; experiment: SPR on immobilised mouse IL-17A

T2 sequence (Q16552 24-155 limits assumed): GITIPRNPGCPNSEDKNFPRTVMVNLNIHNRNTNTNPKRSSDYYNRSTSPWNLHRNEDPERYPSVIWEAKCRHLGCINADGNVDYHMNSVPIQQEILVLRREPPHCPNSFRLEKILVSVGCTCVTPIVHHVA

IC50, % inhibition of IL-17A-induced IL-17RA/IL17RC dimerization (PathHunter cytokine receptor assay) [1] [nM] | IC50 in IL-17RA/IL7RC dimerization assay [2] [nM] | Kd (mouse IL-17A [3]) [nM] | fold affinity against SEQ ID NO: 1 (mouse IL-17A [4]) [fold] | Binder
189 | < 200 |  |  | Ac-IHVTIPADLWDWVNK-NH2 [peptide of SEQ ID NO: 8]
 | < 10000 |  |  | Ac-LHVTIPADLWDWINK-NH2 [peptide of SEQ ID NO: 160]
263 | < 400 |  |  | Ac-IHVTIPADLWDWINR-NH2 [peptide of SEQ ID NO: 10]
118 | < 200 |  |  | Ac-IHVTIPADLWDWINE-NH2 [peptide of SEQ ID NO: 12]
203 | < 100 |  |  | Ac-VMVTIPADLWDWINK-NH2 [peptide of SEQ ID NO: 4]
 |  | 3700 |  | Ac-IHVTIPADLWDWINK-NH2 [High Affinity Peptide (HAP), peptide of SEQ ID NO: 1]
191 | < 200 | 130 | 28 | Ac-VHVTIPADLWDWINK-NH2 (HAP with Ile 1 replaced by Val) [peptide of SEQ ID NO: 2]
158 | < 200 |  |  | Ac-VPGDGVMVTIPADLYEWIEE-NH2 [peptide of SEQ ID NO: 39]
240 | < 200 |  |  | Ac-VMVTIPADLYEWIEEVPGDG-NH2 [peptide of SEQ ID NO: 40]
 | < 10000 |  |  | Ac-PHVTIPADLWDWINK-NH2 [peptide of SEQ ID NO: 161]
188 | < 200 |  |  | Ac-VMVTIPADLYEWIEEVPGAGVPGAG-NH2 [peptide of SEQ ID NO: 37]
103 |  |  |  | Ac-IHVTIPADLYEWINK-NH2 (not fully specified) [peptide of SEQ ID NO: 7]
 | < 10000 |  |  | Ac-IRVTIPADLWDWINK-NH2 [peptide of SEQ ID NO: 162]
380 | < 400 |  |  | Ac-IHVTIPADLWDWVRR-NH2 [peptide of SEQ ID NO: 14]
 | < 10000 |  |  | Ac-IKVTIPADLWDWINK-NH2 [peptide of SEQ ID NO: 163]
